Measured values: the supplement of paper PMC10567573

B1: CFHR2 (parent)
chain: FVENGHSESSGQTHLEGDTVQIIC
B2: TRAF3IP2 (parent)
chain: KQGSMNFRFIPVLFPNAKKEHVPT

Variants of: B1
Experiment: protein stability index of a GFP-peptide fusion (GPS, HEK-293T) (PSI 1-6); higher = more stable
Conditions: c terminus: a fixed tail appended
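Further: lentivirally expressed fusions sorted by FACS into six bins by GFP to DsRed ratio, PSI derived from sequencing read proportions per bin multiplied by bin number.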

Protein stability index of substitutions, site by site:
F1: A 4.27

Variants of: B2
Experiment: as above
Conditions: c terminus: a fixed tail appended

Protein stability index: each site, then its substitutions
K18: F 1.77; S 1.71; T 1.85; M 1.76; C 1.71; H 1.89; A 1.76; Y 1.84; P 1.77; N 1.93; Q 1.77; E 2.15; L 1.61; G 2.04; W 1.65; I 2.27; D 2.34; R 1.6; V 1.65
T24: H 1.89; Y 2.5; P 2.14; V 1.76; A 2.25; G 2.14; C 1.94; K 2.19; M 1.87; D 2.16; I 1.7; L 1.67; E 2.35; F 1.75; N 1.97; Q 1.92; S 1.65; R 2.33; W 2.06
E20: H 2.03; W 1.9; S 1.73; T 2.05; C 1.85; P 2.12; M 2.3; Y 1.77; D 2.33; A 2.11; Q 2.02; L 1.67; G 2.24; I 2.19; K 1.68; R 1.65; V 2.26; N 2.15; F 1.93
A17: E 2.47; G 2.18; M 2.08; V 1.61; S 2.21; L 1.89; H 1.92; D 2.32; R 2; F 1.64; N 2; T 2.86; Q 2.38; K 1.82; C 1.97; W 1.74; P 2.07; I 1.8; Y 1.72
K19: Y 1.99; I 1.59; W 1.65; C 1.7; D 2.13; H 2.34; N 1.7; F 1.98; P 1.6; S 1.98; Q 1.84; E 1.99; M 1.59; L 1.78; A 1.66; R 1.59; T 1.75; V 1.65; G 1.95
P23: E 2.19; D 2.29; M 1.78; N 1.86; G 2.15; Q 1.69; C 1.96; K 2; S 1.88; L 2.16; A 1.82; Y 1.84; W 2.58; I 1.77; T 2.27; F 1.79; H 1.83; R 2.05; V 1.4
V22: K 2.61; P 1.82; F 2.16; W 1.6; Q 1.96; N 2.23; M 2.24; C 2; D 2.89; Y 1.91; L 2.09; S 3; I 2.11; E 2.19; R 1.99; T 2.38; A 2.22; H 1.73; G 2.4
N16: H 1.66; W 2; L 1.66; V 1.55; R 2.59; Q 1.75; T 1.7; M 1.88; G 2.08; K 1.72; I 2.29; P 1.92; Y 1.8; S 2.33
H21: C 2.02; Y 1.82; L 2.23; E 2.47; S 2.07; D 2.06; P 2.14; K 1.77; G 2.3; Q 1.78; V 1.94; W 1.81; T 2.15; F 1.66; N 2.21; I 1.59; M 2.13; R 1.72; A 2.19
